From the nanobody polyreactivity screen of Harvey et al. (2022)

Experiment: yeast display, Sf9 membrane polyspecificity reagent, FACS + sequencing; frameworks hold sequencing errors
Method in brief: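 Nanobodies from a synthetic yeast display library (Saccharomyces cerevisiae BJ5465), induced 36–48 hours with galactose, were stained 1 hour at 4 °C with 10% biotinylated, detergent-solubilized Sf9 membrane reagent, enriched on streptavidin microbeads, then FACS-sorted. Anti-HA (expression) and streptavidin (reagent binding) fluorescence set low and high (top ~1%) gates. Polyreactivity labels come from the gate of origin. Genes were colony-PCR amplified, MiSeq 2 × 250 sequenced and filtered by CDR length.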

Sequence | polyreactivity (PSR sort gate)
QVQLVESGGGLDQAGGSLRLSWAASGSIFTIYAMGWYRQAPGKERELVAAISRRGGSTYYADSVKGRFTISRDNSKNTVYLQMNSLKPEDTAVYYCNADVAPGIFYGYDCWGQGTQVTVSS | low polyreactivity
QVQLVESGGGLDQAGGSLRLSWAASGSTFTINVMGWYRQAPGKERELVAAINGGGRTNYADSVKGRFTISRDNAKNTVYLQMNSLKPEDTAVYYCAADGLSNVRQMDFWGQGTQVTVSS | low polyreactivity
QVQLVESGGGLDQAGGSLRLTCAASGFTFQVYAMGWYRQAPGKERELVADITSGTSTNYADSVKGRFTSSRDNAKNTVYLQMNSLKPEDTAVYYCANVYTYKSFDYWGQGTQVTVSS | low polyreactivity
QVQLVESGGGLDQAGGSLRLTCAASGRIISGNAMGWYRQAPGKERELVAAISWSGGSTYYADSVKWRFTISRDNEKNTVYLHMNSLQPEDSAVYYCNAPGYRRYGSRMGYCGQGTQVTVSS | high polyreactivity
QVQLVESGGGLDQAGGSLRLTCAASGSIFEIYDRGWYRQAPGKEMELVASIRTSGGSTFYADSVKGRFTISRDNAKNTVYLQMNSLKPEDTAVYYCAAGDVPRRIYLVYVGYLLDYWGQGTQVTVSS | low polyreactivity
QVQLVESGGGLDQAGGTLRLSSAASGSTFYTNAMGWYRQAPGKERELVAAISGSGGSTYYADSVKGRFTISRDNAKNTVYLQMNSLKPEDNAVYYCAARSRYYDTRFDYWGQGTQVTVSS | low polyreactivity
QVQLVESGGGLDQAGRSLRLSCAASGSTFPYTAMGWYRQAPGKYRELVAGITDGDGSTSYADSVKGRFTISRDNAKNTVYLQMNCMKPELPAVYYCAARYTYYADEDDYWGQGSQVTVSS | low polyreactivity
QVQLVESGGGLDQARGSLRLSCAASGITFHPNAMGWYRQAPGKERELVAAISGRRSRTYYADSVKGRFIISRDNAKNTVYLLLNSLKPEDTAVYYCAKDHPSGRQYDYWGQGTQVTVSS | high polyreactivity
QVQLVESGGGLDQARGSLRLSCAASGRTFYSYAMGWYRQAPGKERELVAAISKRGTSTYYADSVKGRFTISRDNAKNTVYLQMNSLKPEDTAVYYCDAGAYIWDIYSYRWYDYWGQGTQVTVSS | high polyreactivity
QVQLVESGGGLDQARGSLRLSCAASGSNFRYYAIGGYRPAHGKERELVASITGSGGRTYYADSVKGRFTISLDNAKNTVYLQMNSLKPEDTAVYYCAVPYHQGNMDYWGQGTQVTVSS | high polyreactivity
QVQLVESGGGLDQARGSLRLSCAASGSTFAFYAMGWYRQAPGKERELVAAITGDGDSTYYADSVKGRFTISRDNAKNTVYLQMNSLKPEDTAVYYCAKSSGGGPSSFDYWGQGTQVTVSS | low polyreactivity
QVQLVESGGGLDQARGSLRLSCAASGYTFYRNAMGWYRQAPGKVRELVAAIRDDGSTYYADSVKGRFTISRDNAKNTVYLHMNSLKPADTAVYYCNRDYPYIWHKGARYWHDNDYWGQGTQVTVSS | low polyreactivity
QVQLVESGGGLDQEGGSLRLSCAASGNIFSSYLMGWYRQAPGKEREVVAAISSRGGSTYYADSVKGRFTISRDNAKNSVYLQMNSLKPEDTAVYYCAARTGRYYRRYDYWGQGTQVTLSS | high polyreactivity
QVQLVESGGGLFHAGGRLRLSCAASGYTFRYYAMGWSRQAPGKERELVAGIDSGGGSTYYAASVKGRFTISRDNAKYTVYLQMNSLKPEDTAVYYCAVDTYSWYGEYYYWGQGTQVTVSS | high polyreactivity
QVQLVESGGGLFKAGGSLRLSCAASGFIFYFYNMAWYRQAPGKERELVAAISKSGTSTYYAASVKGRFTISRDNAKNTVYLQMNSLKPEDPAVYYCNKVRRANFDYWGQGTQVTVSS | high polyreactivity
QVQLVESGGGLFQAGASLRLSCAASGFIFTDYAIGWDTQAPGKERELVAAISSGGRTYYADSVKGRFTISRDNAKNTVYLQMNSLKPEDTAVYYCARGGRAEGWGQGTQVTVSS | high polyreactivity
QVQLVESGGGLFQAGGRLLLSCAASGRIFTYNTRGWYRQAPGKEREFVAAISSSSVSTYYADSVKGRITISRDNAKYTVYLQMNCLKPEDTAVYYCAAKRVGYHIGYVYPYGYWGQGTQVTVSS | high polyreactivity
